Measurements: paper PMC3125984 (Journal of molecular biology, 2011)
Read-outs that look alike come from different tables or passages of the source.

B1: Mss116 (truncated construct, Ser73 - Tyr597) (domain or fragment, Saccharomyces cerevisiae, UniProt P15424 73-597, looked up)
chain: SREDDDEVHFDKTTFSKLIHVPKEDNSKEVTLDSLLEEGVLDKEIHKAITRMEFPGLTPVQQKTIKPILSSEDHDVIARAKTGTGKTFAFLIPIFQHLINTKFDSQYMVKAVIVAPTRDLALQIEAEVKKIHDMNYGLKKYACVSLVGGTDFRAAMNKMNKLRPNIVIATPGRLIDVLEKYSNKFFRFVDYKVLDEADRLLEIGFRDDLETISGILNEKNSKSADNIKTLLFSATLDDKVQKLANNIMNKKECLFLDTVDKNEPEAHERIDQSVVISEKFANSIFAAVEHIKKQIKERDSNYKAIIFAPTVKFTSFLCSILKNEFKKDLPILEFHGKITQNKRTSLVKRFKKDESGILVCTDVGARGMDFPNVHEVLQIGVPSELANYIHRIGRTARSGKEGSSVLFICKDELPFVRELEDAKNIVIAKQEKYEPSEEIKSEVLEAVTEEPEDISDIVISLISSYRSCIKEYRFSERRILPEIASTYGVLLNDPQLKIPVSRRFLDKLGLSRSPIGKAMFEIRDY

What was measured:
[1] = target: the molecule itself; test: fluorescence correlation spectroscopy
[2] = target: T1, Mss116 core (Ser73-Tyr597) (Saccharomyces cerevisiae, UniProt P15424 73-597); test: FCS
T1 sequence: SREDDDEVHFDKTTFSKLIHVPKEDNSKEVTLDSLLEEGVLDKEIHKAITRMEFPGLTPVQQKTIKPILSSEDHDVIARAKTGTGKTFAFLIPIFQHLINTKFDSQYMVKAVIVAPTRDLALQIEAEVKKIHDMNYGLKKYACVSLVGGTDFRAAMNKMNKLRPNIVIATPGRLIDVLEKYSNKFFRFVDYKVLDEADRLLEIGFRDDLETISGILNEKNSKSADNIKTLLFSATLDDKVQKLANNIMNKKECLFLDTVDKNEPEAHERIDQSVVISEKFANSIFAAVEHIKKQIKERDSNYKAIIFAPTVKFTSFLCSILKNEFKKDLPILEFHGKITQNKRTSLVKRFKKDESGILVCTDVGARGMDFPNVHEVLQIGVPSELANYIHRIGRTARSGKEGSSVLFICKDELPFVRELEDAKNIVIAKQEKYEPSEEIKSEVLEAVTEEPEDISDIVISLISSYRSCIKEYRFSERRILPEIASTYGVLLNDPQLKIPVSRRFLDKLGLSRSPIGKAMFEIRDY

[3] = target: T1, Mss116 core (Ser73-Tyr597); test: FCS; remark: listed apart in the source

Row | Binder | binding result [1] | Kd [2] [nM] | Kd [3] [nM]
1 | B1 | binds |  | 
2 | GCCUCGCUGCCCUUCGGGGCAGCGAGGC (structured_RNA) [28-mer hairpin RNA] |  | 117 ± 21 | 122 ± 22
